Values quoted from earlier work, collected in patent US10500169B2, “Supression of IgE production by compounds derived from traditional chinese medicine” (Sean N. Parker Foundation, priority 2014, dated 2019).

Test system: peanut allergic patients

B1: TNX-901: anti-IgE antibody (antibody, chains of the INN, looked up, V domains shown)
VH: QVQLVQSGAEVKKPGASVKVSCKASGYTFSMYWLEWVRQAPGHGLEWVGEISPGTFTTNYNEKFKARATFTADTSTNTAYMELSSLRSEDTAVYYCARFSHFSGSNYDYFDYWGQGTLVTVSS
VL: DILLTQSPGTLSLSPGERATLSCRASQSIGTNIHWYQQKPGQAPRLLIKYASESISGIPSRFSGSGSGTDFTLTISRLEPEDFAMYYCQQSDSWPTTFGQGTKVEIK
**Q.** With B1 as the molecule, how does the “median threshold of sensitivity to peanut after treatment” value (increased from 178 mg peanut protein) read?
**A.** 2.8 grams

**Q.** And the “symptoms following peanut challenge” value (vs placebo group)?
**A.** significant decrease in symptoms
